The text below walks through data of patent US8101390B2, “Mutant-type acetyltransferase Mpr1” (National University Corporation Nara Institute of Science …, priority 2006, dated 2012).

The target of data set [1] is T1, Saccharomyces cerevisiae N-acetyltransferase Mpr1 variant K63R (lysine 63 to arginine), SEQ ID NO:7 (Saccharomyces cerevisiae, UniProt E9P8D2, K63R).
T1 sequence (E9P8D2 1-229 K63R): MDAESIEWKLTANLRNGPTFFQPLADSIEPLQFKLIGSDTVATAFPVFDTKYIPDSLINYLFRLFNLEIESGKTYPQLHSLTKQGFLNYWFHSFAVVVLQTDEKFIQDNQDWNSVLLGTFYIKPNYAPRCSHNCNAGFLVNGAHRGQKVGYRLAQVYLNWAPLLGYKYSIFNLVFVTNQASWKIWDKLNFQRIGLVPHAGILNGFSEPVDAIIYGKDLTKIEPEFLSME
Put plainly: DTNB enzymatic activity (kinetics) of purified K63R mutant-type Mpr1. Format: biochemical. The following applies: vs wild-type. Here is the method:
(§1) JM109 was inoculated in 5 ml of M9CA (CA:0.2%) medium and was cultured at. 37° C. until OD600 of the culture reached 0.7. IPTG was added to the medium to the final concentration of 0.1 mM and cells were further cultured at 18° C. for 18 hours. After the culture, cells were ice-cooled and were collected by centrifugation (8000 rpm, 5 min). Cells were washed by the addition of Lysis buffer. After centrifugation (8000 rpm, 5 min), 5 ml of Lysis buffer was added and cells were suspended therein. The suspension was subjected to ultrasonic disintegrator and was centrifuged (15000 rpm, 10 min). The supernatant was applied onto Ni-NTA column (2 ml of QIAGEN resin suspension) equilibrated with Lysis buffer. The flow-through fraction was collected and the column was washed with 10 ml of wash buffer and then fractions were collected. Further, fractions eluted with 5 ml of elution buffer were used as the purified enzyme.
(§2) Enzymatic activities were measured for the purified wild-type Mpr1 and the purified K63R, F65L/L117V, F65L and L117V-mutant-type Mpr1s. The enzymatic activities were measured according to 5,5′-dithiobis (2-nitrobenzoic acid) (DTNB) method.

In data set [2] the target is T2, Saccharomyces cerevisiae N-acetyltransferase Mpr1 variant F65L (phenylalanine 65 to leucine), SEQ ID NO:8 (Saccharomyces cerevisiae, UniProt E9P8D2, F65L).
T2 sequence (E9P8D2 1-229 F65L): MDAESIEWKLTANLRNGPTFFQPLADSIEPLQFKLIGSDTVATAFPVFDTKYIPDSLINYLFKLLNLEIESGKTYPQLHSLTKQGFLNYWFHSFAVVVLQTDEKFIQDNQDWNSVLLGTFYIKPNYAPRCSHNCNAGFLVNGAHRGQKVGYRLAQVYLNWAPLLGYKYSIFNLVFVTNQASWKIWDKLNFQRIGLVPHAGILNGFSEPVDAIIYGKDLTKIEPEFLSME
Put plainly: DTNB enzymatic activity (kinetics) of purified F65L mutant-type Mpr1. It counts as biochemical. The following applies: vs wild-type. Here is the method: as §1, §2

Data set [3] concerns the target T3, Saccharomyces cerevisiae N-acetyltransferase Mpr1 variant L117V (leucine 117 to valine), SEQ ID NO:9 (Saccharomyces cerevisiae, UniProt E9P8D2, L117V).
T3 sequence (E9P8D2 1-229 L117V): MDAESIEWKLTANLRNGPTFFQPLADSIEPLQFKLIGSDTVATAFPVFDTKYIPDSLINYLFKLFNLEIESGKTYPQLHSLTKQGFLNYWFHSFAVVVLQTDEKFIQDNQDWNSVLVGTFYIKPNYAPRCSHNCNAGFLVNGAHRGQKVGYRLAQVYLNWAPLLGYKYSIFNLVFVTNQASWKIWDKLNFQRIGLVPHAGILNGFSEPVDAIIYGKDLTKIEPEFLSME
Description: DTNB enzymatic activity (kinetics) of purified L117V mutant-type Mpr1. It counts as biochemical. The following applies: vs wild-type. Here is the method: as §1, §2

The target in data set [4] is T4, Saccharomyces cerevisiae N-acetyltransferase Mpr1, wild-type, SEQ ID NO:1 (Saccharomyces cerevisiae, UniProt E9P8D2).
T4 sequence (E9P8D2 1-229): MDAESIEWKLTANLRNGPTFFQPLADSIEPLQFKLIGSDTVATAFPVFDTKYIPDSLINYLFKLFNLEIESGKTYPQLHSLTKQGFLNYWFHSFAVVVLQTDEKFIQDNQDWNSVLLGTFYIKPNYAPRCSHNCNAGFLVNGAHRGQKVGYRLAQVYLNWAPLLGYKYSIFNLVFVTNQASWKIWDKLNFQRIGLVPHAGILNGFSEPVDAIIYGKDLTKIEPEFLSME
Put plainly: DTNB enzymatic activity (kinetics) of purified wild-type Mpr1. It counts as biochemical. The following applies: 30° C., […]-0.15 mM acetyl-CoA. The protocol: as §1, §2

Substrate in data set [5]: CC(=O)SCCNC(=O)CCNC(=O)[C@H](O)C(C)(C)COP(=O)(O)OP(=O)(O)OC[C@H]1O[C@@H](n2cnc3c(N)ncnc32)[C@H](O)[C@@H]1OP(=O)(O)O
Put plainly: DTNB enzymatic activity (kinetics) of purified L117V mutant-type Mpr1. The following applies: other: L117V, 30° C., DTNB method, […]-0.15 mM acetyl-CoA. Format: biochemical, Saccharomyces cerevisiae.

Substrate in data set [6]: O=C(O)[C@@H]1CCN1
The data set is described as above. The following applies: other: L117V, 30° C., DTNB method, 0.5 mM-5 mM AZC. Format: biochemical, Saccharomyces cerevisiae.

Substrate in data set [7]: CC(=O)SCCNC(=O)CCNC(=O)[C@H](O)C(C)(C)COP(=O)(O)OP(=O)(O)OC[C@H]1O[C@@H](n2cnc3c(N)ncnc32)[C@H](O)[C@@H]1OP(=O)(O)O
Description: DTNB enzymatic activity (kinetics) of purified K63R mutant-type Mpr1. It counts as biochemical, Saccharomyces cerevisiae. The following applies: other: K63R, 30° C., DTNB method, […]-0.15 mM acetyl-CoA.

Substrate in data set [8]: O=C(O)[C@@H]1CCN1
The description is as above. It counts as biochemical, Saccharomyces cerevisiae. The following applies: other: K63R, 30° C., DTNB method, 0.5 mM-5 mM AZC.

Substrate in data set [9]: CC(=O)SCCNC(=O)CCNC(=O)[C@H](O)C(C)(C)COP(=O)(O)OP(=O)(O)OC[C@H]1O[C@@H](n2cnc3c(N)ncnc32)[C@H](O)[C@@H]1OP(=O)(O)O
Description: DTNB enzymatic activity (kinetics) of purified F65L/L117V mutant-type Mpr1. Format: biochemical, Saccharomyces cerevisiae. The following applies: other: F65L/L117V, 30° C., DTNB method, […]-0.15 mM acetyl-CoA.

Substrate in data set [10]: O=C(O)[C@@H]1CCN1
The data set is described as above. Format: biochemical, Saccharomyces cerevisiae. The following applies: other: F65L/L117V, 30° C., DTNB method, 0.5 mM-5 mM AZC.

Substrate in data set [11]: CC(=O)SCCNC(=O)CCNC(=O)[C@H](O)C(C)(C)COP(=O)(O)OP(=O)(O)OC[C@H]1O[C@@H](n2cnc3c(N)ncnc32)[C@H](O)[C@@H]1OP(=O)(O)O
Description: DTNB enzymatic activity (kinetics) of purified F65L mutant-type Mpr1. It counts as biochemical, Saccharomyces cerevisiae. The following applies: other: F65L, 30° C., DTNB method, […]-0.15 mM acetyl-CoA.

Substrate in data set [12]: O=C(O)[C@@H]1CCN1
Described as above. The following applies: other: F65L, 30° C., DTNB method, 0.5 mM-5 mM AZC. It counts as biochemical, Saccharomyces cerevisiae.

Substrate in data set [13]: O=C(O)[C@@H]1CCN1
Put plainly: DTNB enzymatic activity (kinetics) of purified wild-type Mpr1. Format: biochemical, Saccharomyces cerevisiae. The following applies: other: wild-type, 30° C., DTNB method, 0.5 mM-5 mM AZC.

`O=C(O)[C@@H]1CCN1` [AZC, azetidine-2-calboxylate]: the “Km value, change in words” value in data set [1] is recorded as “decreased”. Further, in data set [2], the “Km value for AZC, change in words” value was “decreased”.
On to `CC(=O)SCCNC(=O)CCNC(=O)[C@H](O)C(C)(C)COP(=O)(O)OP(=O)(O)OC[C@H]1O[C@@H](n2cnc3c(N)ncnc32)[C@H](O)[C@@H]1OP(=O)(O)O` [Acetyl-CoA, acetyl-CoA], for which, in data set [1], the “Km value, change in words” value was “decreased”. Further, in [3], the “Km value for acetyl-CoA, change in words” value is reported as “decreased”. Moreover, in data set [4], the “Vmax (Acetyl-CoA)” value was determined as 64.5 ± 1.29 U/mg and the “kcat (Acetyl-CoA)” value is 31.2 ± 0.63 s⁻¹.

B1: Saccharomyces cerevisiae N-acetyltransferase Mpr1 variant L117V (leucine 117 to valine), SEQ ID NO:9 (Saccharomyces cerevisiae; L117V) (protein)
chain: MDAESIEWKLTANLRNGPTFFQPLADSIEPLQFKLIGSDTVATAFPVFDTKYIPDSLINYLFKLFNLEIESGKTYPQLHSLTKQGFLNYWFHSFAVVVLQTDEKFIQDNQDWNSVLVGTFYIKPNYAPRCSHNCNAGFLVNGAHRGQKVGYRLAQVYLNWAPLLGYKYSIFNLVFVTNQASWKIWDKLNFQRIGLVPHAGILNGFSEPVDAIIYGKDLTKIEPEFLSME
A word on the Km: it is the concentration of substrate that gives half-maximal velocity. In general, kcat refers to the number of substrate molecules converted per active site and unit of time at saturation. A word on the kcat/Km: it is the second-order rate constant that governs catalysis at low substrate concentration. B1: in data set [5], the Km is given as 7.63 ± 2.03 ↓ μM, the Vmax is reported as 79.4 ± 1.54 U/mg, the kcat amounted to 38.4 ± 0.74 s⁻¹ and the kcat/Km came out at 5e+06 ± 1.17e+06 M⁻¹ s⁻¹. In data set [6], the Michaelis-Menten constant (Km) was 1400 ± 130 µM, the Vmax stood at 98.5 ± 3.34 U/mg, the kcat came out at 47.6 ± 1.61 s⁻¹ and the kcat/Km stood at 32500 ± 2580 M⁻¹ s⁻¹.

B2: Saccharomyces cerevisiae N-acetyltransferase Mpr1 variant K63R (lysine 63 to arginine), SEQ ID NO:7 (Saccharomyces cerevisiae; K63R) (protein)
chain: MDAESIEWKLTANLRNGPTFFQPLADSIEPLQFKLIGSDTVATAFPVFDTKYIPDSLINYLFRLFNLEIESGKTYPQLHSLTKQGFLNYWFHSFAVVVLQTDEKFIQDNQDWNSVLLGTFYIKPNYAPRCSHNCNAGFLVNGAHRGQKVGYRLAQVYLNWAPLLGYKYSIFNLVFVTNQASWKIWDKLNFQRIGLVPHAGILNGFSEPVDAIIYGKDLTKIEPEFLSME
Regarding B2, in data set [7], the Michaelis-Menten constant (Km) is recorded as 8.0 ± 2.84 ↓ μM, the Vmax was 62.4 ± 1.94 U/mg, the catalytic constant (kcat) is 26.5 ± 0.94 s⁻¹ and the kcat/Km worked out at 3.3e+06 ± 1.09e+06 M⁻¹ s⁻¹. Also, in data set [8], the Km is 1.2 ± 0.17 ↓ mM, the Vmax worked out at 72 ± 2.98 U/mg, the kcat was 30.6 ± 1.44 s⁻¹ and the catalytic efficiency (kcat/Km) was 24800 M⁻¹ s⁻¹.

B3: Saccharomyces cerevisiae N-acetyltransferase Mpr1 variant F65L/L117V, SEQ ID NO:10 (Saccharomyces cerevisiae; F65L/L117V) (protein)
chain: MDAESIEWKLTANLRNGPTFFQPLADSIEPLQFKLIGSDTVATAFPVFDTKYIPDSLINYLFKLLNLEIESGKTYPQLHSLTKQGFLNYWFHSFAVVVLQTDEKFIQDNQDWNSVLVGTFYIKPNYAPRCSHNCNAGFLVNGAHRGQKVGYRLAQVYLNWAPLLGYKYSIFNLVFVTNQASWKIWDKLNFQRIGLVPHAGILNGFSEPVDAIIYGKDLTKIEPEFLSME
For the molecule B3, in data set [9], the Km stood at 13.3 ± 1.67 µM, the Vmax worked out at 64.9 ± 0.36 U/mg, the kcat came to 31.4 ± 0.17 s⁻¹ and the kcat/Km was found to be 2.3e+06 M⁻¹ s⁻¹. Further, in data set [10], the Michaelis constant (Km) was 1800 ± 190 µM, the Vmax is given as 79.4 ± 1.05 U/mg, the kcat was determined as 38.4 ± 2.18 s⁻¹ and the specificity constant (kcat/Km) turned out to be 21300 M⁻¹ s⁻¹.

B4: Saccharomyces cerevisiae N-acetyltransferase Mpr1 variant F65L (phenylalanine 65 to leucine), SEQ ID NO:8 (Saccharomyces cerevisiae; F65L) (protein)
chain: MDAESIEWKLTANLRNGPTFFQPLADSIEPLQFKLIGSDTVATAFPVFDTKYIPDSLINYLFKLLNLEIESGKTYPQLHSLTKQGFLNYWFHSFAVVVLQTDEKFIQDNQDWNSVLLGTFYIKPNYAPRCSHNCNAGFLVNGAHRGQKVGYRLAQVYLNWAPLLGYKYSIFNLVFVTNQASWKIWDKLNFQRIGLVPHAGILNGFSEPVDAIIYGKDLTKIEPEFLSME
Take B4: in data set [11], the Km worked out at 10.3 ± 1.46 µM, the Vmax came to 63.7 ± 3.34 U/mg, the turnover number (kcat) is 30.8 ± 0.61 s⁻¹ and the catalytic efficiency (kcat/Km) was 2.9e+06 M⁻¹ s⁻¹. For the same molecule, in data set [12], the Km is 0.7 ± 0.15 ↓ mM, the Vmax is 65.0 ± 2.74 U/mg, the kcat was 31.4 ± 1.33 s⁻¹ and the kcat/Km is 45500 ± 8630 M⁻¹ s⁻¹.

B5: Saccharomyces cerevisiae N-acetyltransferase Mpr1, wild-type, SEQ ID NO:1 (Saccharomyces cerevisiae) (protein)
chain: MDAESIEWKLTANLRNGPTFFQPLADSIEPLQFKLIGSDTVATAFPVFDTKYIPDSLINYLFKLFNLEIESGKTYPQLHSLTKQGFLNYWFHSFAVVVLQTDEKFIQDNQDWNSVLLGTFYIKPNYAPRCSHNCNAGFLVNGAHRGQKVGYRLAQVYLNWAPLLGYKYSIFNLVFVTNQASWKIWDKLNFQRIGLVPHAGILNGFSEPVDAIIYGKDLTKIEPEFLSME
On to B5, for which, in data set [13], the Michaelis-Menten constant (Km) was 1600 ± 90 µM, the Vmax came out at 74.76 ± 1.27 U/mg, the kcat worked out at 36.1 ± 1.53 s⁻¹ and the specificity constant (kcat/Km) is 22400 M⁻¹ s⁻¹.
